Like-named read-outs stand apart in the source and are kept apart here.
Columns and labels:
Test in all cases: FRET or BRET
[1] = target: T1, Cy3-labeled β-galactosidase (UniProt P00722 1-1024 = β-galactosidase, Cy3 fluorophore label (site not stated))
[2] = target: T2, Cy3-labeled recombinant rat hepatocyte nuclear factor 4α (rat, UniProt P22449 1-474, Cy3 fluorophore label (site not stated))
T2 sequence (looked up): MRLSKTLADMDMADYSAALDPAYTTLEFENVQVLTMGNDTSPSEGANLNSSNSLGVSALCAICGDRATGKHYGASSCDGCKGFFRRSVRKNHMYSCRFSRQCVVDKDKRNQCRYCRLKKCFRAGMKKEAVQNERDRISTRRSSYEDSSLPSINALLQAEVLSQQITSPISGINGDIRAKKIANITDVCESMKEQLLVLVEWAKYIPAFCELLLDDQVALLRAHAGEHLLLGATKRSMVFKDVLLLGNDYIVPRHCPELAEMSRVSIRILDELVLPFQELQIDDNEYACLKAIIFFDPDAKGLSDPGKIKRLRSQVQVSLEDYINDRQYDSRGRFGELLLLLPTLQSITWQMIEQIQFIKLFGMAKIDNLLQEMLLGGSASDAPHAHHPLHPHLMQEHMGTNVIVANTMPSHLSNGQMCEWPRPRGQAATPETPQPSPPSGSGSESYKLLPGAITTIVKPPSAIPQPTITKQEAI

[3] = target: T1, Cy3-labeled β-galactosidase; remark: listed apart in the source
[4] = target: T2, Cy3-labeled recombinant rat hepatocyte …; remark: listed apart in the source

T1 sequence (P00722 whole entry): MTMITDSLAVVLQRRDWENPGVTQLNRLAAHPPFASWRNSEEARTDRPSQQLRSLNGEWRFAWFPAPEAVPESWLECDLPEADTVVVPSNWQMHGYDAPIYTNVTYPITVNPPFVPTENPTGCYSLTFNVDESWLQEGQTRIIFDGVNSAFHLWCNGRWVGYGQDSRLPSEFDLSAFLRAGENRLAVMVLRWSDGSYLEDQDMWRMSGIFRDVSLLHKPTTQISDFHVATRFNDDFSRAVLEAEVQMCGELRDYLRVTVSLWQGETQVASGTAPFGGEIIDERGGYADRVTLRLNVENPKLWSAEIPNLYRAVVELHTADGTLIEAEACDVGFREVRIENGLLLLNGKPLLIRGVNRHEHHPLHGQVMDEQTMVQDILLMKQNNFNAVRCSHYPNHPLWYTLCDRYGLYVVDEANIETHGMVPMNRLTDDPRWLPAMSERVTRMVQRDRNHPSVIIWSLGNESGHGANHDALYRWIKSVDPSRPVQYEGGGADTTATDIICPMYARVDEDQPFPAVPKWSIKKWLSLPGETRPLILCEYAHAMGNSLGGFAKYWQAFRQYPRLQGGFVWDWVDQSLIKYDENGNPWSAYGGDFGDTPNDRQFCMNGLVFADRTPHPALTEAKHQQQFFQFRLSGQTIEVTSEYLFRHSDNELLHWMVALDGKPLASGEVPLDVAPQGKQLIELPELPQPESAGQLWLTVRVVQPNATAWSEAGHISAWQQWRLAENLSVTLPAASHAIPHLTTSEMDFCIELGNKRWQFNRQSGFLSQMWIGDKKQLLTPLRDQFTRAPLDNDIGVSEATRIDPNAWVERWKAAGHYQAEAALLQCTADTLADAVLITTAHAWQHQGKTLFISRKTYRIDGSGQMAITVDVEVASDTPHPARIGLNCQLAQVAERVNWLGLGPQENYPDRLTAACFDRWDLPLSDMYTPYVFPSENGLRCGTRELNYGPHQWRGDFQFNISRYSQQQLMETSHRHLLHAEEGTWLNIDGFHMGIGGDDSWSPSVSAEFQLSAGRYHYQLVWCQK

B1: Cy5-labeled recombinant rat liver-type fatty acid binding protein (natural protein, UniProt P02692 1-127, looked up)
chain: MNFSGKYQVQSQENFEPFMKAMGLPEDLIQKGKDIKGVSEIVHEGKKVKLTITYGSKVIHNEFTLGEECELETMTGEKVKAVVKMEGDNKMVTTFKGIKSVTEFNGDTITNTMTLGDIVYKRVSKRI
modifications: Cy5 fluorophore label (site not stated)
Kd [1]: > 10000 nM
Kd [2]: 300 nM
Kd [3]: > 10000 nM
Kd [4]: 250 nM

— article PMC3889205 (FEBS letters, 2013)
